Biological target: T1, EphA3/ephrin-A5 complex (Homo sapiens, UniProt P29320+P52803)
T1 construct: Fc fusion proteins of the ephrin-A5 and EphA3 extracellular domains fused to the hinge and Fc region of human IgG1 were produced as described; expressed in transfected cells; host or cells: EphA3/HEK293 cells; ephrin-A5-Fc added as soluble pre-clustered protein
T1 sequence (P29320 21-983): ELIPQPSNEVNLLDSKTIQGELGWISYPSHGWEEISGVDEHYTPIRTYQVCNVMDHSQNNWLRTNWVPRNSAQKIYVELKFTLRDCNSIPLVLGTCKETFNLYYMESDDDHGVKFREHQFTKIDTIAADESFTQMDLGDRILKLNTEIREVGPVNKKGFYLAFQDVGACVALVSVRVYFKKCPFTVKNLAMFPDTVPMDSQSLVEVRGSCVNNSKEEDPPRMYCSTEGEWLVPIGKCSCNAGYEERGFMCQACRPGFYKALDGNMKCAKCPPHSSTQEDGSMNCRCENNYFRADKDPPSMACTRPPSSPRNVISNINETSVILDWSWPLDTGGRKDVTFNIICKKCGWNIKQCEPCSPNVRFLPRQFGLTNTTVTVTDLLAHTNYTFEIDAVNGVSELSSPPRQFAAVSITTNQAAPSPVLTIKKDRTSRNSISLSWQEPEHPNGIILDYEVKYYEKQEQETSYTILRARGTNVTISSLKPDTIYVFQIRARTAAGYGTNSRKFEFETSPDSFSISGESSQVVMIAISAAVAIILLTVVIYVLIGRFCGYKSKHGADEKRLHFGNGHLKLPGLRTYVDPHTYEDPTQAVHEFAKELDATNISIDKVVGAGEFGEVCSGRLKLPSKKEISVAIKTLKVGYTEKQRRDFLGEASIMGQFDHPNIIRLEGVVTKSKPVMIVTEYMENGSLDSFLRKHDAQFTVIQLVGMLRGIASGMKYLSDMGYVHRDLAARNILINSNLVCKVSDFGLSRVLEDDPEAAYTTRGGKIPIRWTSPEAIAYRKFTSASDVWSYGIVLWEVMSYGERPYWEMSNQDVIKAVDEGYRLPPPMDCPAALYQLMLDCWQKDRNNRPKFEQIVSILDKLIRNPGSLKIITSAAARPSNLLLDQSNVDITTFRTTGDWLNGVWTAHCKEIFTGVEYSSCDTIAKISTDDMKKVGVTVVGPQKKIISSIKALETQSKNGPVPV
T1 sequence (P52803 21-203 limits assumed): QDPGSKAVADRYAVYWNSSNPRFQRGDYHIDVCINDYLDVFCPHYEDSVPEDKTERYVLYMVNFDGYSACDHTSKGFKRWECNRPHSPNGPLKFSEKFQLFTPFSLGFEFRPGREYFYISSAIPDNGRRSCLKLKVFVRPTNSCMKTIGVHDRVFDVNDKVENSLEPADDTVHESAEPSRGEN
Test: Co-immunoprecipitation from transfected cells treated with pre-clustered ephrin-A5-Fc
Format: cell-based
Details: EphA3/293 cells, pre-clustered ephrin-A5-Fc 10 min
Procedure: FIG. 4. Mutation of acidic residues in the ADAM10 Cys-rich domain affects binding to EphA3/ephrin-A5 and cleavage of ephrin-A5. • A. In vitro binding of mutant ADAM10D+C to EphA3/ephrin-A5. ADAM10D+C[EEE-A] containing Alanine substitutions of Glu573, Glu578, Glu579 (lanes 1-4) or ADAM10D+C[RDD-A] (Ala substitutions of Arg525, Asp526, Asp527, lanes 5-8) were incubated alone (lanes 1, 5), or together with EphA3-Fc (lanes 2, 6), ephrin-A5-Fc (lanes 3, 7), or EphA3-Fc and ephrin-A5 (lanes 4, 8). Complexed proteins were extracted with Protein-A-Sepharose beads and analysed as in FIG. 2. • B. Binding of wild-type and mutant ADAM10ΔMP to EphA3 in cells. EphA3/293 cells were transfected with HA-ADAM10ΔMP or HA-ADAM10ΔMP [EEE-A]. Parental and transfected cells were treated for 10 min with or without pre-clustered ephrin-A5-Fc and lysed. Anti-HA and anti-EphA3 immunoprecipitates, and total cell lysates were analysed by Western blotting with indicated antibodies. • C. Ephrin-A5-Fc cleavage in cells expressing wt and 3A mutant ADAM10. EphA3/293 cells were transfected with full length, wild-type (wt) ADAM10, dominant-negative ADAM10ΔMP, or ADAM10 bearing alanine (3A) or 3 lysine (3K) substitutions of Glu573, 578, 579. Following exposure to clustered (+) or non-clustered ? ephrin-A5 Fc, cleaved ephrin was recovered and analysed by Western Blot as described in FIG. 1c. […]

B1: ADAM10Δpro: cell-surface ADAM10Δpro incorporating the EEE-A amino acid substitutions (protein)
chain: SGQPICGNGMVEQGEECDCGYSDQCKDDCCFDANQPEGKKCKLKPGKQCSPSQGPCCTAQCAFKSKSEKCRDDSDCAKEGICNGFTALCPASDPKPNFTDCNRHTQVCINGQCAGSICAKYDLAACTCASSDGKDDKELCHVCCMKKMAPSTCASTGSLQWSKQFSGRTITLQPGSPCNDFRGYCDVFMRCRLVDADGPLARLKKAIFSPQLYENIAEWIVAHWWAVLLMGIALIMLMAGFIKICSVHTPSSNPKLPPPKPLPGTLKRRRPPQPIQQPPRQRPRESYQMGHMRR
modifications: left off: small tags and cut ends
notes: cell-surface ADAM10Δpro incorporating the EEE-A amino acid substitutions
B1 was tested, and the “interaction with the EphA3/ephrin-A5 complex in cells” value was “significantly inhibited”.

— patent US7960513B2, “Antibody against a human ADAM protease” (Monash University, priority 2004, dated 2011)
